Results taken from the supplement of paper PMC12458215.
± gives the uncertainty stated by the source.

Tested on: HEK293T
Assay: plasma membrane surface immunostaining intensity (anti-HA, deep receptor scanning) (arbitrary fluorescence units); higher = higher plasma membrane expression

Sequence	plasma membrane surface immunostaining intensity (GPCR class: A (Olfactory))	plasma membrane surface immunostaining intensity (GPCR class: A)	also measured
MDKINQTFVREFILLGLSGYPKLEIIFFALILVMYVVILIGNGVLIIASILDSRLHMPMYFFLGNLSFLDICYTTSSIPSTLVSLISKKRNISFSGCAVQMFFGFAMGSTECFLLGMMAFDRYVAICNPLRYPIIMNKVVYVLLTSVSWLSGGINSTVQTSLAMRWPFCGNNIINHFLCEILAVLKLACSDISVNIVTLAVSNIAFLVLPLLVIFFSYMFILYTILRTNSATGRHKAFSTCSAHLTVVIIFYGTIFFMYAKPKSQDLLGKDNLQATEGLVSMFYGVVTPMLNPIIYSLRNKDVKAAIKYLLSRKAINQ [OR13C4]	311 ± 110	–	–
MDLELDEYYNKTLATENNTAATRNSDFPVWDDYKSSVDDLQYFLIGLYTFVSLLGFMGNLLILMALMKKRNQKTTVNFLIGNLAFSDILVVLFCSPFTLTSVLLDQWMFGKVMCHIMPFLQCVSVLVSTLILISIAIVRYHMIKHPISNNLTANHGYFLIATVWTLGFAICSPLPVFHSLVELQETFGSALLSSRYLCVESWPSDSYRIAFTISLLLVQYILPLVCLTVSHTSVCRSISCGLSNKENRLEENEMINLTLHPSKKSGPQVKLSGSHKWSYSFIKKHRRRYSKKTACVLPAPERPSQENHSRILPENFGSVRSQLSSSSKFIPGVPTCFEIKPEENSDVHELRVKRSVTRIKKRSRSVFYRLTILILVFAVSWMPLHLFHVVTDFNDNLISNRHFKLVYCICHLLGMMSCCLNPILYGFLNNGIKADLVSLIHCLHM [NPY5R]	–	269 ± 26	–
MDLGKPMKSVLVVALLVIFQVCLCQDEVTDDYIGDNTTVDYTLFESLCSKKDVRNFKAWFLPIMYSIICFVGLLGNGLVVLTYIYFKRLKTMTDTYLLNLAVADILFLLTLPFWAYSAAKSWVFGVHFCKLIFAIYKMSFFSGMLLLLCISIDRYVAIVQAVSAHRHRARVLLISKLSCVGIWILATVLSIPELLYSDLQRSSSEQAMRCSLITEHVEAFITIQVAQMVIGFLVPLLAMSFCYLVIIRTLLQARNFERNKAIKVIIAVVVVFIVFQLPYNGVVLAQTVANFNITSSTCELSKQLNIAYDVTYSLACVRCCVNPFLYAFIGVKFRNDLFKLFKDLGCLSQEQLRQWSSCRHIRRSSMSVEAETTTTFSP [CCR7]	–	2440 ± 380	–
MDLKNGSLVTEFILLGFFGRWELQIFFFVTFSLIYGATVMGNILIMVTVTCRSTLHSPLYFLLGNLSFLDMCLSTATTPKMIIDLLTDHKTISVWGCVTQMFFMHFFGGAEMTLLIIMAFDRYVAICKPLHYRTIMSHKLLKGFAILSWIIGFLHSISQIVLTMNLPFCGHNVINNIFCDLPLVIKLACIETYTLELFVIADSGLLSFTCFILLLVSYIVILVSVPKKSSHGLSKALSTLSAHIIVVTLFFGPCIFIYVWPFSSLASNKTLAVFYTVITPLLNPSIYTLRNKKMQEAIRKLRFQYVSSAQNF [OR4L1]	549 ± 220	–	–
MDLKTVLSLPRYPGEFLHPVVYACTAVMLLCLLASFVTYIVHQSAIRISRKGRHTLLNFCFHAALTFTVFAGGINRTKYPILCQAVGIVLHYSTLSTMLWIGVTARNIYKQVTKKAPLCLDTDQPPYPRQPLLRFYLVSGGVPFIICGVTAATNIRNYGTEDEDTAYCWMAWEPSLGAFYGPAAIITLVTCVYFLGTYVQLRRHPGRRYELRTQPEEQRRLATPEGGRGIRPGTPPAHDAPGASVLQNEHSFQAQLRAAAFTLFLFTATWAFGALAVSQGHFLDMVFSCLYGAFCVTLGLFVLIHHCAKREDVWQCWWACCPPRKDAHPALDANGAALGRAACLHSPGLGQPRGFAHPPGPCKMTNLQAAQGHASCLSPATPCCAKMHCEPLTADEAHVHLQEEGAFGHDPHLHGCLQGRTKPPYFSRHPAEEPEYAYHIPSSLDGSPRSSRTDSPPSSLDGPAGTHTLACCTQGDPFPMVTQPEGSDGSPALYSCPTQPGREAALGPGHLEMLRRTQSLPFGGPSQNGLPKGKLLEGLPFGTDGTGNIRTGPWKNETTV [ADGRA1]	–	–	plasma membrane surface immunostaining intensity (GPCR class: B): 2640 ± 630
MDLPPQLSFGLYVAAFALGFPLNVLAIRGATAHARLRLTPSLVYALNLGCSDLLLTVSLPLKAVEALASGAWPLPASLCPVFAVAHFFPLYAGGGFLAALSAGRYLGAAFPLGYQAFRRPCYSWGVCAAIWALVLCHLGLVFGLEAPGGWLDHSNTSLGINTPVNGSPVCLEAWDPASAGPARFSLSLLLFFLPLAITAFCYVGCLRALARSGLTHRRKLRAAWVAGGALLTLLLCVGPYNASNVASFLYPNLGGSWRKLGLITGAWSVVLNPLVTGYLGRGPGLKTVCAARTQGGKSQK [FFAR1]	–	265 ± 37	–
